{"source": "patent US20080233097A1", "about": "“Phosphorylation Site Of Mitogen-Activated Protein Kinases, Modified Proteins And Applications” (UNIVERSIDAD AUTONOMA DE MADRID, priority 2005, published 2008)", "key": {"GST-ATF2": {"system": "GST-ATF2", "assay": "phosphorylation of GST-ATF2 by MKK6CAM-activated p38", "type": "biochemical", "settings": "with MKK6CAM, 2 μg GST-ATF2", "procedure": "The reactions were carried out at 30° C. for 30 minutes and the proteins were separated in 8% SDS-PAGE gels. The amount of p38 in each point was visualized by Coomassie Blue staining. Then the radioactivity in each p38 isoform was determined. […] FIG. 11B: In these same assays, the ability of MKK6CAM-activated GST-p38WT, GST-p38T123A and GST-p38T123D to phosphorylate 2 μg of GST-ATF2 is evaluated. The representative autoradiography (^32P) of the total GST-ATF2 control (Coomassie Blue) is attached.\n(§1) The ATF2 and MEF2A forms bound to GST were used to test the catalytic activity of GST-p38. In most cases, 2 μg of GST-ATF2 or GST-MEF2A, of own production, were used. The phosphorylation conditions are the same as set forth in the foregoing cases. Nevertheless, in other occasions, relevantly pointed out in the Figures, 0.2 μg of substrate were used and the phosphorylation reaction was allowed to take pace for 15 minutes only."}, "GST-MEF2A": {"system": "GST-MEF2A", "assay": "phosphorylation of GST-MEF2A by p38", "type": "biochemical", "settings": "with MKK6CAM, 2 μg GST-MEF2A", "procedure": "FIG. 12A: In vitro phosphorylations are carried out with the fusion proteins indicated in the Figure, in the presence (+) or absence (−) of recombinant MKK6CAM(40 ng) and 2 μg of GST-MEF2A. The assay was left to take place for 30 minutes. The proteins were separated in 8% SDS-PAGE, stained with CBB and the incorporated radioactivity (^32P) was detected. Panels of a representative experiment of the three assays carried out independently are provided. FIG. 12B: The baseline activity of the three p38 fusion proteins in the absence of the MKK6CAM activator was evaluated in the previously described conditions. A representative autoradiography after a long exposure is shown.\nas §1"}, "MKK6CAM": {"system": "MKK6CAM", "assay": "p38 activation by MKK6CAM in situ (anti-phospho-p38) in HEK293 cells", "type": "cell-based, human", "settings": "HEK293, 150 ng p38 plasmid, 50 ng pCDNA3-MKK6CAM", "procedure": "In overexpression experiments analogous to those described previously, HEK293 cells, seeded in M6 and always in duplicate, were transfected with: 150 ng of pCDNA3-Flag-p38α WT, or pCDNA3-Flag-p38α T123D and 50 ng of pCDNA3-MKK6CAM, (or empty pCDNA3). p38 activation with the anti-phospho-p38 antibody was evaluated. For each of the two isoforms, the activation by MKK6CAM was in reference to the baseline situation, obtaining a certain activation level. 100% activation was established as the p38α WT activation in each experiment. Data (±SEM) of three independent experiments are shown. A two-sided Student's-t test was carried out and *p<0.0001 was obtained. The right-hand side panels (Western blot) illustrate one of the experiments. […]\nThe HE 293 cells, generally subjected to starvation (medium without serum) of a variable duration: 2 hours in the case of p38 and all night in the case of ERK, were stimulated and, after processing the lysate cells, the immunodetection of the phosphoproteins was carried out with the phospho-specific antibodies of the activation segments of both proteins. […] The quantification of the bands was carried out in a laser densitometer. In all the cases, the values obtained for the bands detected with the anti-phospho-protein antibody were normalized in relation to the total amount of p38 or ERK expressed in the cells. […]"}, "MKK6": {"system": "MKK6", "assay": "GST pull-down of purified MKK6", "type": "binding", "settings": "GST-p38 300 nM, MKK6 3 nM; vs T123A mutant or wild type", "procedure": "Purified GST-p38 and its T123 mutants (300 nM) were incubated in the presence of purified MKK6 (3 nM) or His-tagged MAPKAPK2 ([…], 20 nM) in a pull down assay with GST as a negative control. Sedimented proteins were developed by Western Blot using anti-MKK6, anti-Histidine (for His-MK2) or anti-GST (for total amounts of GST-p38s) antibodies. In all panels, results are representative of three independent experiments performed in duplicate.\nThe proteins GST, GST-p38 wt, GST-p38T123A and GST-p38T123D were bacterially expressed and isolated using Gluthatione-Sepharose 4B (GE-Amersham) following standard procedures (Murga, C. et al. High affinity binding of beta-adrenergic receptor kinase to microsomal membranes. Modulation of the activity of bound kinase by heterotrimeric G protein activation. J Biol Chem 271, 985-994 (1996)). His-MAPKAPK2 was purified using Probond resin (Invitrogen) following manufacturer's indications. MKK6CAM was purchased from Upstate Biotech. The amount of proteins detailed in the legend to each figure were incubated in binding buffer (25 mM Tris pH 7.5, 0.25 M NaCl, 10 mM MgCl2, 5 mM NaF and 0.5% BSA) for 30 min at 30° C. with constant shaking. ATP (50 μM) was added for MAPKAPK2 pull downs. Precipitates were washed three times (10 ml) with the same buffer containing 0.5% Triton X100. Precipitated complexes were resolved by SDS-PAGE and developed by Western Blot."}}}
{"molecule": "p38T123D: p38α mutant; aspartic acid mimics the constitutively phosphorylated form of threonine 123 (protein, UniProt P47811 2-360, looked up, variant T123D, GST or Flag tag in some forms) Mitogen-activated protein …: SQERPTFYRQELNKTIWEVPERYQNLSPVGSGAYGSVCAAFDTKTGHRVAVKKLSRPFQSIIHAKRTYRELRLLKHMKHENVIGLLDVFTPARSLEEFNDVYLVTHLMGADLNNIVKCQKLDDDHVQFLIYQILRGLKYIHSADIIHRDLKPSNLAVNEDCELKILDFGLARHTDDEMTGYVATRWYRAPEIMLNWMHYNQTVDIWSVGCIMAELLTGRTLFPGTDHIDQLKLILRLVGTPGAELLKKISSESARNYIQSLAQMPKMNFANVFIGANPLAVDLLEKMLVLDSDKRITAAQALAHAYFAQYHDPDDEPVADPYDQSFESRDLLIDEWKSLTYDEVISFVPPPLDQEEMES", "values": [{"measurement": "catalytic activity on GST-ATF2", "setting": "GST-ATF2", "value": "lacks the most minimum catalytic activity"}, {"measurement": "catalytic activity on MEF2A", "setting": "GST-MEF2A", "value": "completely abolished"}, {"measurement": "activation by MKK6CAM versus Flag-p38WT", "setting": "MKK6CAM", "value": "considerable reduction"}, {"measurement": "ability to associate to MKK6", "setting": "MKK6", "value": "severely impaired"}]}
